Assay results: patent US20230407373A1 (priority 2020, published 2023)
Like-named read-outs stand apart in the source and are kept apart here.

B1: PUF60: host protein, UniProt Q9UHX1 (protein, UniProt Q9UHX1 1-559, looked up)
Poly(U)-binding-splicing …: MATATIALQVNGQQGGGSEPAAAAAVVAAGDKWKPPQGTDSIKMENGQSTAAKLGLPPLTPEQQEALQKAKKYAMEQSIKSVLVKQTIAHQQQQLTNLQMAAVTMGFGDPLSPLQSMAAQRQRALAIMCRVYVGSIYYELGEDTIRQAFAPFGPIKSIDMSWDSVTMKHKGFAFVEYEVPEAAQLALEQMNSVMLGGRNIKVGRPSNIGQAQPIIDQLAEEARAFNRIYVASVHQDLSDDDIKSVFEAFGKIKSCTLARDPTTGKHKGYGFIEYEKAQSSQDAVSSMNLFDLGGQYLRVGKAVTPPMPLLTPATPGGLPPAAAVAAAAATAKITAQEAVAGAAVLGTLGTPGLVSPALTLAQPLGTLPQAVMAAQAPGVITGVTPARPPIPVTIPSVGVVNPILASPPTLGLLEPKKEKEEEELFPESERPEMLSEQEHMSISGSSARHMVMQKLLRKQESTVMVLRNMVDPKDIDDDLEGEVTEECGKFGAVNRVIIYQEKQGEEEDAEIIVKIFVEFSIASETHKAIQALNGRWFAGRKVVAEVYDQERFDNSDLSA
B2: SRSF5: host protein, UniProt Q13243 (protein, UniProt Q13243 1-272, looked up)
Serine/arginine-rich splicing …: MSGCRVFIGRLNPAAREKDVERFFKGYGRIRDIDLKRGFGFVEFEDPRDADDAVYELDGKELCSERVTIEHARARSRGGRGRGRYSDRFSSRRPRNDRRNAPPVRTENRLIVENLSSRVSWQDLKDFMRQAGEVTFADAHRPKLNEGVVEFASYGDLKNAIEKLSGKEINGRKIKLIEGSKRHSRSRSRSRSRTRSSSRSRSRSRSRSRKSYSRSRSRSRSRSRSKSRSVSRSPVPEKSQKRGSSSRSKSPASVDRQRSRSRSRSRSVDSGN
B3: FBL: host protein, UniProt P22087 (protein, UniProt P22087 1-321, looked up)
rRNA 2'-O-methyltransferase …: MKPGFSPRGGGFGGRGGFGDRGGRGGRGGFGGGRGRGGGFRGRGRGGGGGGGGGGGGGRGGGGFHSGGNRGRGRGGKRGNQSGKNVMVEPHRHEGVFICRGKEDALVTKNLVPGESVYGEKRVSISEGDDKIEYRAWNPFRSKLAAAILGGVDQIHIKPGAKVLYLGAASGTTVSHVSDIVGPDGLVYAVEFSHRSGRDLINLAKKRTNIIPVIEDARHPHKYRMLIAMVDVIFADVAQPDQTRIVALNAHTFLRNGGHFVISIKANCIDSTASAEAVFASEVKKMQQENMKPQEQLTLEPYERDHAVVVGVYRPPPKVKN
B4: RBMX (protein, UniProt P38159 1-391, looked up)
RNA-binding motif protein, X …: MVEADRPGKLFIGGLNTETNEKALEAVFGKYGRIVEVLLMKDRETNKSRGFAFVTFESPADAKDAARDMNGKSLDGKAIKVEQATKPSFESGRRGPPPPPRSRGPPRGLRGGRGGSGGTRGPPSRGGHMDDGGYSMNFNMSSSRGPLPVKRGPPPRSGGPPPKRSAPSGPVRSSSGMGGRAPVSRGRDSYGGPPRREPLPSRRDVYLSPRDDGYSTKDSYSSRDYPSSRDTRDYAPPPRDYTYRDYGHSSSRDDYPSRGYSDRDGYGRDRDYSDHPSGGSYRDSYESYGNSRSAPPTRGPPPSYGGSSRYDDYSSSRDGYGGSRDSYSSSRSDLYSSGRDRVGRQERGLPPSMERGYPPPRDSYSSSSRGAPRGGGRGGSRSDRGGGRSRY
B5: POLDIP3: host protein, UniProt Q9BY77 (protein, UniProt Q9BY77 2-421, looked up)
Polymerase delta-interacting …: ADISLDELIRKRGAAAKGRLNARPGVGGVRSRVGIQQGLLSQSTRTATFQQRFDARQKIGLSDARLKLGVKDAREKLLQKDARFRIKGKVQDAREMLNSRKQQTTVPQKPRQVADAREKISLKRSSPAAFINPPIGTVTPALKLTKTIQVPQQKAMAPLHPHPAGMRINVVNNHQAKQNLYDLDEDDDGIASVPTKQMKFAASGGFLHHMAGLSSSKLSMSKALPLTKVVQNDAYTAPALPSSIRTKALTNMSRTLVNKEEPPKELPAAEPVLSPLEGTKMTVNNLHPRVTEEDIVELFCVCGALKRARLVHPGVAEVVFVKKDDAITAYKKYNNRCLDGQPMKCNLHMNGNVITSDQPILLRLSDSPSMKKESELPRRVNSASSSNPPAEVDPDTILKALFKSSGASVTTQPTEFKIKL

Key:
Format in all cases: binding
[1] = tested on: HCoV-OC43 gRNA and sgRNA; settings: for target (unweighted spectral count, OC43 Probe II capture) / target (unweighted spectral count): tested against no-probe control; for target (unweighted spectral count, OC43 Probe II capture): FDR<10%; for target (unweighted spectral count, OC43 Probe II) / background (unweighted spectral count, no-probe control): type n_48_v, 48 hpi; for target (unweighted spectral count, OC43 Probe II): OC43 Probe II capture on infected cells; for background (unweighted spectral count, no-probe control): no-probe control on infected cells; for target (spectral count) / background (spectral count): type s_36_m, Probe II; for target (spectral count): HCoV-OC43-infected HCT-8 cells; for background (spectral count): uninfected-probe control; for target (unweighted spectral count): OC43 Probe II, infected cells
[2] = tested on: SARS-CoV-2 gRNA; settings: for target (unweighted spectral count of the protein in the RNP capture): LC-MS/MS, Probe I sample (first 199 lines of Table 2)
[3] = tested on: gRNA of HCoV-OC43; settings: for target (spectral count, OC43 Probe I RNP capture) / background (spectral count, no-probe control): type n_48_v: 48 hours post-infection; for target (spectral count, OC43 Probe I RNP capture): infected cells, unweighted spectral count; for background (spectral count, no-probe control): no-probe control on infected cells; for target (spectral count) / background (spectral count): type g_36_m, 36 hpi, Probe I; for target (spectral count): HCoV-OC43-infected HCT-8 cells; for background (spectral count): uninfected-probe control

Molecule	target (unweighted spectral count, OC43 Probe II capture) ([1]; 36 hpi, type n_36_v)	target (unweighted spectral count, OC43 Probe II) [1]	background (unweighted spectral count, no-probe control) [1]	target (spectral count) ([1]; 36 hpi)	background (spectral count) ([1]; 36 hpi)	target (unweighted spectral count of the protein in the RNP capture) ([2]; […])	target (spectral count, OC43 Probe I RNP capture) [3]	background (spectral count, no-probe control) [3]	target (unweighted spectral count, OC43 Probe II capture) ([1]; 24 hpi, type n_24_v)	target (unweighted spectral count in RNP capture) ([2]; Probe I capture, […], LC-MS/MS LFQ)	background (unweighted spectral count in control) ([2]; no-probe control pull-down, used as background for Probe I)	target (spectral count) [3]	background (spectral count) [3]	target (unweighted spectral count) ([1]; 12 hpi (type n_12_v))	target (unweighted spectral count) ([1]; 24 hpi (type n_24_v))
B1	7	7	1	7	1	7	9	1	–	–	–	–	–	–	–
B2	10	12	2	–	–	–	–	–	4	5	1	8	1	–	–
B3	11	–	–	11	1	5	9	2	4	–	–	10	1	–	–
B4	12	20	1	–	–	6	17	1	–	–	–	–	–	4	6
B5	–	–	–	–	–	5	7	1	–	–	–	7	1	–	–
